Source: PMC10213050 (Nature Communications, 2023)
Each block holds one binder with its values, some of them ahead of it.

B3: 6xHis-hRad51 (natural protein, human, UniProt Q06609 1-339, looked up)
chain: MAMQMQLEANADTSVEEESFGPQPISRLEQCGINANDVKKLEEAGFHTVEAVAYAPKKELINIKGISEAKADKILAEAAKLVPMGFTTATEFHQRRSEIIQITTGSKELDKLLQGGIETGSITEMFGEFRTGKTQICHTLAVTCQLPIDRGGGEGKAMYIDTEGTFRPERLLAVAERYGLSGSDVLDNVAYARAFNTDHQTQLLYQASAMMVESRYALLIVDSATALYRTDYSGRGELSARQMHLARFLRMLLRLADEFGVAVVITNQVVAQVDGAAMFAADPKKPIGGNIIAHASTTRLYLRKGRGETRICKIYDSPCLPEAEAMFAINADGVGDAKD
notes: human Rad51 recombinase; also called recombinant hRad51; source: E. coli BL21 (DE3), purified (Ni-NTA)

Columns and labels:
Settings in all cases: both partners purified
6xHis-hRad51 = target: B3; assay: pull-down; ssDNA pull-down: 5'-biotinylated 90-nt ssDNA on streptavidin magnetic beads, yeast or human Rad51 bound first, then Bre1 or RNF20N added; 37 °C; 42 mM Tris-HCl pH 7.5, 15 mM KCl, 90 mM NaCl, 2 mM ATP; Bre1 or RNF20N alone did not bind the ssDNA
6xHis-Bre1 = target: T1, 6xHis-Bre1 (yeast (Saccharomyces cerevisiae), UniProt Q07457 1-700); assay: as above
T1 construct: Bre1, yeast ubiquitin E3 ligase; also called WT Bre1; wild-type Bre1; source: E. coli BL21 (DE3), purified (Ni-NTA)
T1 sequence (looked up): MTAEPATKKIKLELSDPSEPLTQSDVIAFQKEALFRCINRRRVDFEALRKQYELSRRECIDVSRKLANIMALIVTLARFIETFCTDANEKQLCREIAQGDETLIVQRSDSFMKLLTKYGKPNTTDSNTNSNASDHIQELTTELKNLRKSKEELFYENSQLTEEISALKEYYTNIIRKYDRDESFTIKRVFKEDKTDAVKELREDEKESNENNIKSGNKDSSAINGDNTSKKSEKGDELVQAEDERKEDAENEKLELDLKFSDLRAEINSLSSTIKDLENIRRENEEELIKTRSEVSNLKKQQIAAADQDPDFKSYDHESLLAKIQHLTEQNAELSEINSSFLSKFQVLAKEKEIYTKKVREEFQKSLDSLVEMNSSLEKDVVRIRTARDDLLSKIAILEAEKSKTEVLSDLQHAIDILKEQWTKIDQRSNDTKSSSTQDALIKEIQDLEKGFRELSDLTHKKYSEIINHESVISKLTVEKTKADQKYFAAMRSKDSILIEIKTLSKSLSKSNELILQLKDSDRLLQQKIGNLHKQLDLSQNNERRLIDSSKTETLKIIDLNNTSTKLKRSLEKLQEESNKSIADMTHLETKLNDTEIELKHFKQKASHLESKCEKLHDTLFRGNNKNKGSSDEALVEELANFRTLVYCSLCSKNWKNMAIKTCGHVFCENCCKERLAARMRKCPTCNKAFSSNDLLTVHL

GST-Bre1 = target: T2, GST-Bre1 (yeast (Saccharomyces cerevisiae), UniProt Q07457 1-700); assay: pull-down; GST-tagged Bre1 (WT, truncated or mutant) or GST-RNF20 on glutathione agarose beads, incubated with 6xHis-tagged Rad51, hRad51 or FBH1 at 4 °C for 4 h; wash 20 mM Tris-HCl pH 7.4, 200 mM NaCl; Western blot or Coomassie
T2 construct: Bre1, yeast ubiquitin E3 ligase; RBD 1-210, linker 211-614, RING 615-700; also called GST-tagged WT Bre1; recombinant GST-Bre1
T2 sequence (looked up): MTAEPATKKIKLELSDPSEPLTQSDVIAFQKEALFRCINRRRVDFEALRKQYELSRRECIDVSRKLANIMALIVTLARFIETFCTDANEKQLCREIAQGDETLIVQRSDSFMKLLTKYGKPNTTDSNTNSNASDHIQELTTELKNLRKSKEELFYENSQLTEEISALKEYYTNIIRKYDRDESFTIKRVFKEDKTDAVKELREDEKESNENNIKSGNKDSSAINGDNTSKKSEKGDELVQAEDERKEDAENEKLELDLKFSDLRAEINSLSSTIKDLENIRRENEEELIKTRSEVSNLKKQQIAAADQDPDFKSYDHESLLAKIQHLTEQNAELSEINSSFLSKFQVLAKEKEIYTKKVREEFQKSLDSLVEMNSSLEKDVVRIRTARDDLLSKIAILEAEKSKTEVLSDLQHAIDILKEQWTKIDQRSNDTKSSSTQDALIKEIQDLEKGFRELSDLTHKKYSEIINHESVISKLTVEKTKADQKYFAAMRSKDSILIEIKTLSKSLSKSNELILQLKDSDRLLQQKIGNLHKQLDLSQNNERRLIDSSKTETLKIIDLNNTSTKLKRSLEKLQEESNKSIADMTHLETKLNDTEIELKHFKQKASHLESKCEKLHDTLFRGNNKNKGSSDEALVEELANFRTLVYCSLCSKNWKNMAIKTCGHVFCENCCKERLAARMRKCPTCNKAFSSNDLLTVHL

[1] = target: T3, GST-tagged truncated Bre1 1-504 aa (yeast (Saccharomyces cerevisiae), UniProt Q07457 1-504); assay: as above
T3 construct: source: recombinant, GST-tagged
T3 sequence (looked up): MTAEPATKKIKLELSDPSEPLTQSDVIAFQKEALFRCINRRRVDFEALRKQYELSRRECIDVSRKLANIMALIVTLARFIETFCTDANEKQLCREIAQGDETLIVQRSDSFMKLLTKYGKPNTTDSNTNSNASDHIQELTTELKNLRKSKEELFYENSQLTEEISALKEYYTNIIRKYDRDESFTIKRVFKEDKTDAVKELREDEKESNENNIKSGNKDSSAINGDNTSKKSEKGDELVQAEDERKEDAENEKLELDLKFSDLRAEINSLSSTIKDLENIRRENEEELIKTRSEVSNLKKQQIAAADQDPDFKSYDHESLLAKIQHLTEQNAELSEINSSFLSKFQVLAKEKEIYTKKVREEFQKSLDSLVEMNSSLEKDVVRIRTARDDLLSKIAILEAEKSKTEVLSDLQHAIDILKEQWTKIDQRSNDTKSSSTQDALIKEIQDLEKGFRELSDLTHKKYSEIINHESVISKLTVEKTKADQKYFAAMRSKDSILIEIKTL

GST-RNF20 = target: T4, GST-RNF20 (human, UniProt Q5VTR2 1-975); assay: as above
T4 construct: RNF20, human homolog of Bre1; an asterisk marks the full-length band on the gel; also called full-length GST-RNF20

GST-Srs2 = target: T5, GST-Srs2 (yeast (Saccharomyces cerevisiae), UniProt P12954 1-1174); assay: pull-down; GST-Srs2 on beads with 6xHis-tagged WT, truncated or mutated Bre1; detected by Western blot with an anti-His antibody; whether ssDNA was included is not told
T5 construct: Srs2 helicase, yeast; also called recombinant GST-Srs2
T5 sequence (looked up): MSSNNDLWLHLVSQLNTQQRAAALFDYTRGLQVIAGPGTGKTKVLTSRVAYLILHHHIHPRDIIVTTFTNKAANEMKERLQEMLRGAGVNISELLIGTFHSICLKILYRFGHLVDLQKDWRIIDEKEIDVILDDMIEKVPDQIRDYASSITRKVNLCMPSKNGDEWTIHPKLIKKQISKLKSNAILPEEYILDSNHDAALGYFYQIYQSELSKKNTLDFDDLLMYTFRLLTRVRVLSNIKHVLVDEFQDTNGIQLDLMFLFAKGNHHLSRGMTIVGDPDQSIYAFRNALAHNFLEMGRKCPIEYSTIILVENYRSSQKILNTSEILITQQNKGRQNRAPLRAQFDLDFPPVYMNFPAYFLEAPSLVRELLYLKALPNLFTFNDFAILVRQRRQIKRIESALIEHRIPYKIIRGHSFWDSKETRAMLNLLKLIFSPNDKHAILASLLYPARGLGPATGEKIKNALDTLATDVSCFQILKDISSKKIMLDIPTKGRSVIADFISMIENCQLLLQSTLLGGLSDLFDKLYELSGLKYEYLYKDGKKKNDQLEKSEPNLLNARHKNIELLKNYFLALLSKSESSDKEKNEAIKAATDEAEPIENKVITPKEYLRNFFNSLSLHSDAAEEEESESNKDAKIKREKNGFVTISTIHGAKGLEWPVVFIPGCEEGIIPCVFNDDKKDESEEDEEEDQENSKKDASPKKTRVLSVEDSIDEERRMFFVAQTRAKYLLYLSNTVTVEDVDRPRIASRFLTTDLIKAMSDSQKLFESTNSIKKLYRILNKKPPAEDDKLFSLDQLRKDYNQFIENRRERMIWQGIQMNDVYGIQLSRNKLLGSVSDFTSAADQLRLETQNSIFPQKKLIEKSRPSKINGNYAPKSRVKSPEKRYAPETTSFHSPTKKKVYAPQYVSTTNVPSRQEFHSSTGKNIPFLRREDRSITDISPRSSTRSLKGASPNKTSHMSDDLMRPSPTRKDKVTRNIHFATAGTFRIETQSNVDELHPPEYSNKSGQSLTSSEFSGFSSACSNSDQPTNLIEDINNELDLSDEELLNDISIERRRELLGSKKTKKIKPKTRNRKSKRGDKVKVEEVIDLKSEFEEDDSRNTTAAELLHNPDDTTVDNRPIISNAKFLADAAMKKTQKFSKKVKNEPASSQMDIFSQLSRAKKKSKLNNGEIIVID

- binding result (6xHis-hRad51): binds
B1: GST-RNF20N (domain or fragment, human, UniProt Q5VTR2 1-300, looked up)
chain: MSGIGNKRAAGEPGTSMPPEKKAAVEDSGTTVETIKLGGVSSTEELDIRTLQTKNRKLAEMLDQRQAIEDELREHIEKLERRQATDDASLLIVNRYWSQFDENIRIILKRYDLEQGLGDLLTERKALVVPEPEPDSDSNQERKDDRERGEGQEPAFSFLATLASSSSEEMESQLQERVESSRRAVSQIVTVYDKLQEKVELLSRKLNSGDNLIVEEAVQELNSFLAQENMRLQELTDLLQEKHRTMSQEFSKLQSKVETAESRVSVLESMIDDLQWDIDKIRKREQRLNRHLAEVLERVN
notes: also called N-terminal fragment RNF20N (1-300 aa)

- binding result (6xHis-Bre1): binds
- binding result (GST-Bre1): binds
- binding result [1]: binds
B2: 6xHis-Rad51 (natural protein, yeast (Saccharomyces cerevisiae), UniProt P25454 1-400, looked up)
chain: MSQVQEQHISESQLQYGNGSLMSTVPADLSQSVVDGNGNGSSEDIEATNGSGDGGGLQEQAEAQGEMEDEAYDEAALGSFVPIEKLQVNGITMADVKKLRESGLHTAEAVAYAPRKDLLEIKGISEAKADKLLNEAARLVPMGFVTAADFHMRRSELICLTTGSKNLDTLLGGGVETGSITELFGEFRTGKSQLCHTLAVTCQIPLDIGGGEGKCLYIDTEGTFRPVRLVSIAQRFGLDPDDALNNVAYARAYNADHQLRLLDAAAQMMSESRFSLIVVDSVMALYRTDFSGRGELSARQMHLAKFMRALQRLADQFGVAVVVTNQVVAQVDGGMAFNPDPKKPIGGNIMAHSSTTRLGFKKGKGCQRLCKVVDSPCLPEAECVFAIYEDGVGDPREEDE
notes: Rad51 recombinase, yeast; also called 6xHis-tagged Rad51; yeast Rad51; source: E. coli BL21 (DE3), purified (Ni-NTA)

Binder: B3
- binding result (GST-RNF20): binds

- binding result (GST-Srs2): binds
B4: 6xHis-tagged Bre1 truncation 1-501 aa (domain or fragment, yeast (Saccharomyces cerevisiae), UniProt Q07457 1-501, looked up)
chain: MTAEPATKKIKLELSDPSEPLTQSDVIAFQKEALFRCINRRRVDFEALRKQYELSRRECIDVSRKLANIMALIVTLARFIETFCTDANEKQLCREIAQGDETLIVQRSDSFMKLLTKYGKPNTTDSNTNSNASDHIQELTTELKNLRKSKEELFYENSQLTEEISALKEYYTNIIRKYDRDESFTIKRVFKEDKTDAVKELREDEKESNENNIKSGNKDSSAINGDNTSKKSEKGDELVQAEDERKEDAENEKLELDLKFSDLRAEINSLSSTIKDLENIRRENEEELIKTRSEVSNLKKQQIAAADQDPDFKSYDHESLLAKIQHLTEQNAELSEINSSFLSKFQVLAKEKEIYTKKVREEFQKSLDSLVEMNSSLEKDVVRIRTARDDLLSKIAILEAEKSKTEVLSDLQHAIDILKEQWTKIDQRSNDTKSSSTQDALIKEIQDLEKGFRELSDLTHKKYSEIINHESVISKLTVEKTKADQKYFAAMRSKDSILIEI
notes: source: recombinant, 6xHis-tagged
